Laboratory results: the supplement of paper PMC10126150
± gives the standard deviation of the averaged measurements.

Test system: ATP
Assay: switch fluorescence ratio, 500 uM ATP over buffer (Cy3 cluster intensity, sum of 5 cycles each) (fold (ratio)); higher = stronger signal-on switching upon ATP binding; sequences stand for … in TCGTCGGCAGCGTCAGATGTGTATAAGAGACAGTTTTTTTTTTTTTTTTTTTTTTTTT…TC
Conditions: aptamer strand: ATP DNA aptamer (quencher-CACCTGGGGGAGTATTGCGGAGGAAGG + anchor), 100 nM annealed; ATP concentration: 500 uM
Summary of the method: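 Exposure to 500 uM ATP lasted 15 min at 22 °C before imaging, and a selection-buffer image was taken beforehand, for Cy3-labelled switching-strand clusters on a modified Illumina MiSeq flow-cell annealed to 100 nM quencher-labelled ATP aptamer. Five buffer/ATP cycles were run with NaOH stripping and re-annealing between them. The fluorescence ratio per cluster is summed target-cycle over summed buffer-cycle Cy3 intensity, averaged per switch-domain sequence. Clusters outside 100-1000 RFU were excluded.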

| Sequence | switch fluorescence ratio |
| --- | --- |
| GGCTCATCA | 1.01 ± 0.023 |
| CGGGAAAGTT | 1.02 ± 0.04 |
| AAGAGGGTAT | 0.9835 ± 0.0065 |
| AGCGTTGATG | 1.01 ± 0.03 |
| TGGGGTGTTG | 0.983 ± 0.011 |
| GTTGGGGGTA | 0.999 ± 0.028 |
| CGTTCTGTTT | 1 ± 0.029 |
| GATGAGGGCG | 1.14 ± 0.23 |
| TCAGTCAGCT | 1 ± 0.039 |
| TTCCCTAATG | 1 ± 0.033 |
| AACCCTTTGC | 1.04 ± 0.016 |
| TGAGTGGCTT | 0.967 ± 0.034 |
| CGCTAGATTT | 0.996 ± 0.031 |
| GGAGGATGGG | 1 ± 0.014 |
| AGCGCCGGGG | 1.03 ± 0.015 |
| GTTTGTGCGG | 0.9811 ± 0.0084 |
| GAGATCGGGG | 1 ± 0.03 |
| TTCATGATTT | 1.034 ± 0.0045 |
| TTAAACAAGG | 1.01 ± 0.012 |
| GAAAAATTGG | 1.03 ± 0.03 |
| TTGATAGTAA | 1.04 ± 0.09 |
| ACCAAATAAG | 1.02 ± 0.023 |
| GCGTTATTGG | 1.03 ± 0.018 |

| Sequence | switch fluorescence ratio |
| --- | --- |
| ACCCGATTGC | 1.29 ± 0.044 |
| GTGTTGTCGG | 1.01 ± 0.026 |
| TTTTGAAGGG | 1 ± 0.021 |
| TTGGTTAAGT | 1.01 ± 0.046 |
| GCCCTTTCGT | 1.032 ± 0.0021 |
| ATCGGGGAGA | 0.997 ± 0.017 |
| GTAAAAGTCG | 1.03 ± 0.015 |
| GTGGTAAACG | 1 ± 0.029 |
| TGGTTGTTT | 0.9856 ± 0.0018 |
| ACTTATTTTT | 1 ± 0.019 |
| GTTTTTATAG | 0.992 ± 0.014 |
| GGGCTATAGC | 0.997 ± 0.056 |
| TCTGTGTACG | 1.04 ± 0.047 |
| ATTAAGTCGC | 1.01 ± 0.022 |
| GACTTGCTGA | 1 ± 0.049 |
| TGCGGGTCGG | 1.03 ± 0.031 |
| TTTTGCGAAA | 1.55 ± 0.9 |
| GGACGGCCGC | 1.06 ± 0.037 |
| TTTAGGTGCA | 1.16 ± 0.14 |
| GGGTGGACAC | 0.947 ± 0.065 |
| TGTGGGTAAA | 1.01 ± 0.042 |
| TTCCGGTTTG | 0.999 ± 0.054 |
| GGGGAGGAGT | 1.01 ± 0.026 |

| Sequence | switch fluorescence ratio |
| --- | --- |
| GGGTACTTAG | 1.05 ± 0.041 |
| GCTTACTGCT | 0.947 ± 0.029 |
| ATTCACAGTT | 1.03 ± 0.033 |
| CTGGAGTCTG | 1.11 ± 0.086 |
| ATTTACAGAT | 1.04 ± 0.03 |
| GGAGTTGAGG | 0.98147 ± 0.00093 |
| TTATATTAGA | 0.971 ± 0.0099 |
| AGTGTGGTCT | 1.02 ± 0.045 |
| TAGTGGCTGG | 1 ± 0.026 |
| GGGGCTGGTA | 1.003 ± 0.0043 |
| TAGGGCGCGG | 0.9403 ± 0.0034 |
| AGTGAGGATC | 0.993 ± 0.032 |
| TTGGATGGTT | 1.01 ± 0.03 |
| CAGCTTTAAT | 1.03 ± 0.02 |
| GTCTAACTGC | 0.962 ± 0.033 |
| CGAAGGCGTA | 1.027 ± 0.0062 |
| GAGAGAGGGA | 1.01 ± 0.034 |
| GGGAGTTCGG | 0.9597 ± 0.0092 |
| GTGTACGGGT | 0.991 ± 0.012 |
| TAAACGCCTC | 1.08 ± 0.058 |
| TTGGACTAGG | 1.02 ± 0.024 |
| CTGGAGGGA | 1 ± 0.07 |
| TTAAAAAAGG | 1.01 ± 0.087 |

| Sequence | switch fluorescence ratio |
| --- | --- |
| TATTGGGTCG | 0.99 ± 0.023 |
| TTTCGTCTGG | 0.955 ± 0.062 |
| TTATGGGGTT | 0.999 ± 0.043 |
| TGCGTTTATT | 0.994 ± 0.015 |
| TGTTTCGGAA | 1.02 ± 0.038 |
| TTGAGTGTGG | 0.998 ± 0.03 |
| CTTATAGCAT | 1.096 ± 0.0085 |
| ACTTGTCGCG | 1.02 ± 0.033 |
| CTGGGAGAAT | 1 ± 0.024 |
| CTGAGGAGGA | 1.031 ± 0.0076 |
| ATGGACACGC | 1.03 ± 0.042 |
| AACGGGTATG | 1.011 ± 0.004 |
| TGGAATTAGC | 1.04 ± 0.054 |
| CGGTTACGAC | 1.02 ± 0.021 |
| TTTCGTTATT | 1.34 ± 0.73 |
| GCTTTTAGAT | 0.9794 ± 0.0028 |
| CGAGCGACGT | 0.9863 ± 0.007 |
| TGCAGGGACG | 1 ± 0.03 |
| AAGTCGGGTG | 1.08 ± 0.024 |
| TATAGAAGT | 1.002 ± 0.0015 |
| CGGTACGGAT | 0.989 ± 0.043 |
| GTTAGTAGTG | 0.952 ± 0.022 |
| GGGTCCAAAT | 1.02 ± 0.04 |

| Sequence | switch fluorescence ratio |
| --- | --- |
| GGGCTCATCA | 0.998 ± 0.041 |
| ATCAATCTCG | 1.017 ± 0.0093 |
| ATGGAGGGTA | 0.99 ± 0.016 |
| AAATTACGGG | 1.045 ± 0.0046 |
| GGGAAAAAGT | 0.985 ± 0.027 |
| ACAAGGTATA | 1.15 ± 0.15 |
| ATGTGCGATT | 1 ± 0.037 |
| CCAGTTCGGA | 0.981 ± 0.059 |
| CCAGTTAAGA | 0.989 ± 0.024 |
| GAGGGACCGT | 0.995 ± 0.025 |
| AAAGTGGGG | 0.973 ± 0.016 |
| CGCTTAGGTT | 1.06 ± 0.061 |
| GGTTTTGGGA | 0.998 ± 0.019 |
| GAAGGGCGGC | 1.01 ± 0.024 |
| TTTGACGGGG | 1.04 ± 0.096 |
| TTGATGAGTG | 1.01 ± 0.033 |
| GGCTCCGGCG | 1.04 ± 0.032 |
| CCGCAGGGGT | 3.1 ± 2.8 |
| CCTATACGGG | 1.03 ± 0.049 |
| TTTGGCACGC | 1.11 ± 0.04 |
| AACTGAGATT | 1.02 ± 0.024 |
| CTGGGGAAAA | 1.57 ± 0.94 |
| ATAATGGCCT | 1.02 ± 0.026 |

| Sequence | switch fluorescence ratio |
| --- | --- |
| GTACCCTGGA | 1.03 ± 0.03 |
| CATCTACTGG | 1.01 ± 0.018 |
| GCAGCGGGGC | 1.28 ± 0.038 |
| AGTGTGGATT | 1.03 ± 0.015 |
| GTTATTTTAC | 1.01 ± 0.031 |
| ATATGCTAAG | 0.9935 ± 0.0099 |
| GACACACAAG | 1.14 ± 0.016 |
| GTAATTTCGT | 0.99733 ± 0.0004 |
| CGTTGGTCAG | 1.02 ± 0.032 |
| AATGCTAATA | 0.952 ± 0.011 |
| TAGGGGGTCG | 0.971 ± 0.042 |
| TAAAATGGAC | 1.03 ± 0.028 |
| CTGGGGTGTG | 1.01 ± 0.039 |
| TTTGGGAAGC | 1.02 ± 0.033 |
| GGGTATGGGT | 0.995 ± 0.043 |
| CAATGATCAG | 1.006 ± 0.0081 |
| TTTTGGAATT | 1.04 ± 0.16 |
| TCTGTAGCTG | 1.3 ± 0.015 |
| TCCCTACGAT | 1.06 ± 0.016 |
| CCGAAAATAG | 3.58 ± 0.48 |
| ATCGTTGAGG | 0.986 ± 0.023 |
| AGATAGATTG | 1 ± 0.04 |
| TTGCTGGGG | 0.972 ± 0.037 |

| Sequence | switch fluorescence ratio |
| --- | --- |
| TCCGTTGGCT | 1.07 ± 0.062 |
| GGGTGTCAGC | 1.02 ± 0.017 |
| TGTGCAGCG | 1.02 ± 0.022 |
| AAATACACGA | 1.06 ± 0.029 |
| TTTGACAGCC | 1.06 ± 0.042 |
| AAGCTCGTGC | 0.973 ± 0.089 |
| GGTCGGGGGT | 1.03 ± 0.039 |
| CATTGTATCG | 1.01 ± 0.011 |
| CGGCGTACTG | 1.03 ± 0.059 |
| TTCATATACT | 1.06 ± 0.034 |
| GGGTGCATGC | 1.07 ± 0.084 |
| CCGGGGTTGT | 1.16 ± 0.22 |
| AAAAGCGCGG | 1.13 ± 0.074 |
| ATTTGTTTAC | 1.011 ± 0.0065 |
| ATGGTTAAAT | 0.976 ± 0.033 |
| GTTTTGCGTT | 0.988 ± 0.028 |
| GGGTGCGGCT | 1.11 ± 0.14 |
| TGGGCGCATT | 1.68 ± 0.88 |
| TGGATTTCGC | 1 ± 0.027 |
